Experimental findings from PMC2859543 are described below.

In this experiment the target is GST-cLkh1^ΔLA (LAMMER motif-deleted Lkh1 catalytic domain) (S. pombe). Nature of the experiment: pull-down.

B1: His6-tagged Tup11 (natural protein)
chain: MASVEDATKVQEMLDALKAEYNALAHHSFASKARGNDYESSMIQSQIQEIEAFRKTVDDMYEKQKSIRETYEKDINKLKRELEELGVEANTASYRNRGERSELAASNNQVTHIDQEHPSQTKSTSQPPSNHLPAFQQIPPIHQSAYPQNNVAEVLMPPIPPSVEASSGQNFNQGIASQNPAISTSNLPSTTPLYIPPVNYGANQVSQQPNPQLPGVSNYYNPSATSKPAVNVQPPRIPTKATPSAEPSMTASANAGSISQAGPDGEYQGREQIAPVSDTEAARKTTSQSWYVTYNPACKRVFNINLVHTLEHPSVVCCVKFSNNGKYLATGCNQAANVFDVQTGKKLFTLHEESPDPSRDLYVRTIAFSPDGKYLVTGTEDRQIKLWDLSTQKVRYVFSGHEQDIYSLDFSHNGRFIVSGSGDRTARLWDVETGQCILKLEIENGVTAIAISPNDQFIAVGSLDQIIRVWSVSGTLVERLEGHKESVYSIAFSPDSSILLSGSLDKTIKVWELQATRSVGLSAIKPEGICKATYTGHTDFVLSVAVSPDSRWGLSGSKDRSMQFWDLQTGQSYLTCQGHKNSVISVCFSPDGRQFASGSGDLRARIWSIDPASP
B1 gave a percent of the substrate-binding activity of GST-cLkh1 and GST-cLkh1^K391R of 30%.

B2: His6-tagged Tup12 (natural protein)
chain: MATSNVSSRVNELLEAVKKEFEDICQKTKTVEAQKDDFEYKAMISAQINEMALMKQTVMDLEMQQSKVKDRYEEEITSLKAQLEARRKEIASGVVPQSSKTKHGRNSVSFGKYGNAGPFNSDNSSKPLILNNGSSGGTPKNLRSPAIDSDGTVLAPIQTSNVDLGSQYYSSPHVRPAVGATMAGSAMRTFPSNLPLGHPPPPSDSANSSVTPIAAPLVVNGKVSGNPPYPAEIIPTSNVPNREEKDWTVTSNVPNKEPPISVQLLHTLEHTSVICYVRFSADGKFLATGCNRAAMVFNVETGKLITLLQEESSKREGDLYVRSVAFSPDGKYLATGVEDQQIRIWDIAQKRVYRLLTGHEQEIYSLDFSKDGKTLVSGSGDRTVCLWDVEAGEQKLILHTDDGVTTVMFSPDGQFIAAGSLDKVIRIWTSSGTLVEQLHGHEESVYSVAFSPDGKYLVSGSLDNTIKLWELQCVSNVAPSMYKEGGICKQTFTGHKDFILSVTVSPDGKWIISGSKDRTIQFWSPDSPHSQLTLQGHNNSVISVAVSPNGHCFATGSGDLRARIWSYEDL
In turn, B2 returned a percent of the substrate-binding activity of GST-cLkh1 and GST-cLkh1^K391R of 30%.
